Results as given in PMC10397247.

Assays:
Assay in all cases: two-hybrid library CCmax;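 also: natural log of median RNA to DNA barcode read ratio; higher means stronger binding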
4H1135-AA = biological target: T1, 4H1135-AA
T1 chain: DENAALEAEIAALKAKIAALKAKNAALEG

4H1153-AA = biological target: T2, 4H1153-AA; settings: mean of both orientations
T2 chain: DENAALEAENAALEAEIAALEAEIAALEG

4H122-AA = biological target: T3, 4H122-AA; settings: mean of both orientations
T3 chain: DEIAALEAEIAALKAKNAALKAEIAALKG

4H1324-AA = biological target: T4, 4H1324-AA; settings: mean of both orientations
T4 chain: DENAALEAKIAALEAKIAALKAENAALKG

4H1352-AA = biological target: T5, 4H1352-AA; settings: mean of both orientations
T5 chain: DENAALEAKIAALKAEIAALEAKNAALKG

4H1401-AA = biological target: T6, 4H1401-AA; settings: mean of both orientations
T6 chain: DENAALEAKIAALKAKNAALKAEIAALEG

4H1552-AA = biological target: T7, 4H1552-AA; settings: mean of both orientations
T7 chain: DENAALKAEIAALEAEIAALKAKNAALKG

4H1636-AA = biological target: T8, 4H1636-AA; settings: mean of both orientations
T8 chain: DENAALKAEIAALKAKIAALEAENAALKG

4H1867-AA = biological target: T9, 4H1867-AA; settings: mean of both orientations
T9 chain: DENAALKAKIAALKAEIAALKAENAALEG

4H2078-AA = biological target: T10, 4H2078-AA; settings: mean of both orientations
T10 chain: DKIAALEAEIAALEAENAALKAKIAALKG

4H2151-AA = biological target: T11, 4H2151-AA; settings: mean of both orientations
T11 chain: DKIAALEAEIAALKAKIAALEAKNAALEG

4H2165-AA = biological target: T12, 4H2165-AA; settings: mean of both orientations
T12 chain: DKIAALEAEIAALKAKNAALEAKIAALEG

4H2190-AA = biological target: T13, 4H2190-AA; settings: mean of both orientations
T13 chain: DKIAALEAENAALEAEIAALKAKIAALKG

4H2277-AA = biological target: T14, 4H2277-AA; settings: mean of both orientations
T14 chain: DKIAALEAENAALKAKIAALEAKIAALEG

4H234-AA = biological target: T15, 4H234-AA; settings: mean of both orientations
T15 chain: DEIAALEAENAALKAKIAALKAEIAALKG

4H2354-AA = biological target: T16, 4H2354-AA; settings: mean of both orientations
T16 chain: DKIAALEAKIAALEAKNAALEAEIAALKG

4H2393-AA = biological target: T17, 4H2393-AA; settings: mean of both orientations
T17 chain: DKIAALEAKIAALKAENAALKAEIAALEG

4H2466-AA = biological target: T18, 4H2466-AA; settings: mean of both orientations
T18 chain: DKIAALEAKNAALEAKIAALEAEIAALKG

4H2505-AA = biological target: T19, 4H2505-AA; settings: mean of both orientations
T19 chain: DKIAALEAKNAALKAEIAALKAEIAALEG

4H2575-AA = biological target: T20, 4H2575-AA; settings: mean of both orientations
T20 chain: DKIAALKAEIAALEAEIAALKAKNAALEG

4H2617-AA = biological target: T21, 4H2617-AA; settings: mean of both orientations
T21 chain: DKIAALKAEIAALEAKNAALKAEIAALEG

4H2642-AA = biological target: T22, 4H2642-AA; settings: mean of both orientations
T22 chain: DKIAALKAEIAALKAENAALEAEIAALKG

4H2729-AA = biological target: T23, 4H2729-AA; settings: mean of both orientations
T23 chain: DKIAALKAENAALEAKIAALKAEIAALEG

4H2754-AA = biological target: T24, 4H2754-AA; settings: mean of both orientations
T24 chain: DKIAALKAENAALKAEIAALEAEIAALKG

4H2837-AA = biological target: T25, 4H2837-AA; settings: mean of both orientations
T25 chain: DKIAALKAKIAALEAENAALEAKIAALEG

4H2883-AA = biological target: T26, 4H2883-AA; settings: mean of both orientations
T26 chain: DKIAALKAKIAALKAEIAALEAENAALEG

4H2944-AA = biological target: T27, 4H2944-AA; settings: mean of both orientations
T27 chain: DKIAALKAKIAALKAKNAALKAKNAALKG

4H2949-AA = biological target: T28, 4H2949-AA; settings: mean of both orientations
T28 chain: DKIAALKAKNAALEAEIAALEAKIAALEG

4H3112-AA = biological target: T29, 4H3112-AA; settings: mean of both orientations
T29 chain: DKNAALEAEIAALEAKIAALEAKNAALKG

4H317-AA = biological target: T30, 4H317-AA; settings: mean of both orientations
T30 chain: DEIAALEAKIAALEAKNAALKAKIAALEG

4H3343-AA = biological target: T31, 4H3343-AA; settings: mean of both orientations
T31 chain: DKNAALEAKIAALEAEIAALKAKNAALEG

4H335-AA = biological target: T32, 4H335-AA; settings: mean of both orientations
T32 chain: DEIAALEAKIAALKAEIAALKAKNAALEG

4H342-AA = biological target: T33, 4H342-AA; settings: mean of both orientations
T33 chain: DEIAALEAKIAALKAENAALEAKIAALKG

4H3427-AA = biological target: T34, 4H3427-AA; settings: mean of both orientations
T34 chain: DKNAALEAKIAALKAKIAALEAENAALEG

4H3606-AA = biological target: T35, 4H3606-AA; settings: mean of both orientations
T35 chain: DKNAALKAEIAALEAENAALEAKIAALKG

4H3627-AA = biological target: T36, 4H3627-AA; settings: mean of both orientations
T36 chain: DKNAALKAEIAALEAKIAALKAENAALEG

4H3655-AA = biological target: T37, 4H3655-AA; settings: mean of both orientations
T37 chain: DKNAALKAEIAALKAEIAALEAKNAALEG

4H3844-AA = biological target: T38, 4H3844-AA; settings: mean of both orientations
T38 chain: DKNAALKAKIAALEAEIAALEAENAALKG

4H3921-AA = biological target: T39, 4H3921-AA; settings: mean of both orientations
T39 chain: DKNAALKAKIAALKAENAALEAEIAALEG

4H429-AA = biological target: T40, 4H429-AA; settings: mean of both orientations
T40 chain: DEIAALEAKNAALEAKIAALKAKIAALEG

4H454-AA = biological target: T41, 4H454-AA; settings: mean of both orientations
T41 chain: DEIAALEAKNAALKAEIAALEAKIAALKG

4H48-AA = biological target: T42, 4H48-AA; settings: mean of both orientations
T42 chain: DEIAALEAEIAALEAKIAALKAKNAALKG

4H566-AA = biological target: T43, 4H566-AA; settings: mean of both orientations
T43 chain: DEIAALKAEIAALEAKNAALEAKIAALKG

4H605-AA = biological target: T44, 4H605-AA; settings: mean of both orientations
T44 chain: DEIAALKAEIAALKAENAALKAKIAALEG

4H678-AA = biological target: T45, 4H678-AA; settings: mean of both orientations
T45 chain: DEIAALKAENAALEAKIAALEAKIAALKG

4H717-AA = biological target: T46, 4H717-AA; settings: mean of both orientations
T46 chain: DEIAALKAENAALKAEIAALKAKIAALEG

4H780-AA = biological target: T47, 4H780-AA; settings: mean of both orientations
T47 chain: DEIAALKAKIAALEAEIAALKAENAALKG

4H794-AA = biological target: T48, 4H794-AA; settings: mean of both orientations
T48 chain: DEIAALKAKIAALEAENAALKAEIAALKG

4H881-AA = biological target: T49, 4H881-AA; settings: mean of both orientations
T49 chain: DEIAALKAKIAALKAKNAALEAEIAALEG

4H906-AA = biological target: T50, 4H906-AA; settings: mean of both orientations
T50 chain: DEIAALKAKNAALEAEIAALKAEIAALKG

4H993-AA = biological target: T51, 4H993-AA; settings: mean of both orientations
T51 chain: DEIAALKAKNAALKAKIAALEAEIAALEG

Work on DENAALEAEIAALKAKIAALKAKNAALEG [4H1135-AA] yielded an interaction score (4H1135-AA) of -0.919, an interaction score (4H1153-AA) of -0.461 and an interaction score (4H122-AA) of -1.24. For the same binder, the interaction score (4H1324-AA) was -1.33, the interaction score (4H1352-AA) was 0.703 and the interaction score (4H1401-AA) was -1.46. It also gave an interaction score (4H1552-AA) of 0.834, an interaction score (4H1636-AA) of -0.92 and an interaction score (4H1867-AA) of 0.0539. The interaction score (4H2078-AA) was -1.19, the interaction score (4H2151-AA) was -0.817 and the interaction score (4H2165-AA) was -1.42. For the same binder, the interaction score (4H2190-AA) was -1.27, the interaction score (4H2277-AA) was -1.81 and the interaction score (4H234-AA) was -1.27. It also gave an interaction score (4H2354-AA) of -1.64, an interaction score (4H2393-AA) of -1.45 and an interaction score (4H2466-AA) of -1.49. For the same binder, the interaction score (4H2505-AA) was 1.53, the interaction score (4H2575-AA) was 0.484 and the interaction score (4H2617-AA) was -0.407. It also gave an interaction score (4H2642-AA) of -1.3, an interaction score (4H2729-AA) of -0.655 and an interaction score (4H2754-AA) of -0.686. It also gave an interaction score (4H2837-AA) of -0.865, an interaction score (4H2883-AA) of 1.22 and an interaction score (4H2944-AA) of -1.57. It also gave an interaction score (4H2949-AA) of -1.21, an interaction score (4H3112-AA) of 1.57 and an interaction score (4H317-AA) of -0.38. For the same binder, the interaction score (4H3343-AA) was -0.943, the interaction score (4H335-AA) was -0.173 and the interaction score (4H342-AA) was -1.17. The interaction score (4H3427-AA) was -1.05, the interaction score (4H3606-AA) was 0.227 and the interaction score (4H3627-AA) was 0.0922. For the same binder, the interaction score (4H3655-AA) was 1.88, the interaction score (4H3844-AA) was 0.92 and the interaction score (4H3921-AA) was -0.897. It also gave an interaction score (4H429-AA) of -1.27, an interaction score (4H454-AA) of -0.222 and an interaction score (4H48-AA) of 0.894. For the same binder, the interaction score (4H566-AA) was -0.252, the interaction score (4H605-AA) was -1.37 and the interaction score (4H678-AA) was -0.965. The interaction score (4H717-AA) was -1.4, the interaction score (4H780-AA) was -1.44 and the interaction score (4H794-AA) was -1.61. For the same binder, the interaction score (4H881-AA) was -1.61, the interaction score (4H906-AA) was -1.37 and the interaction score (4H993-AA) was 0.00688.
